# Patent publication US6509447B1, “G protein chimeras and methods of screening compounds” (Glaxo Welcome Inc., priority 1997, dated 2003)
# T1: melatonin ML1B receptor (Homo sapiens, UniProt P49286)
# T1 construct: expressed in transfected cells; host or cells: Saccharomyces cerevisiae strains MMY9 and MMY11, plasmid pDT-PGK-ML1B
# T1 sequence (P49286 1-362): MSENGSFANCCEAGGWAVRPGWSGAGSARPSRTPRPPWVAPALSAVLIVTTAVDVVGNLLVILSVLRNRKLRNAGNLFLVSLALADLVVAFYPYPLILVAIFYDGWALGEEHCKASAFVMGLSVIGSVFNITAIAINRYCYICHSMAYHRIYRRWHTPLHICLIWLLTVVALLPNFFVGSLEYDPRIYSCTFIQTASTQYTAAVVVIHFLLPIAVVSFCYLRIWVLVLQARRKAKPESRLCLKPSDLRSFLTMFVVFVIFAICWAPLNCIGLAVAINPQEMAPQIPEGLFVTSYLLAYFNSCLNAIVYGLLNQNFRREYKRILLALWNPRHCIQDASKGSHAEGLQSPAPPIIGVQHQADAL
# T2: serotonin 5HT1A receptor (Homo sapiens, UniProt P08908)
# T2 construct: expressed in transfected cells; host or cells: Saccharomyces cerevisiae strains MMY9 and MMY11, plasmid pDT-PGK-5-HT1A
# T2 sequence (P08908 1-422): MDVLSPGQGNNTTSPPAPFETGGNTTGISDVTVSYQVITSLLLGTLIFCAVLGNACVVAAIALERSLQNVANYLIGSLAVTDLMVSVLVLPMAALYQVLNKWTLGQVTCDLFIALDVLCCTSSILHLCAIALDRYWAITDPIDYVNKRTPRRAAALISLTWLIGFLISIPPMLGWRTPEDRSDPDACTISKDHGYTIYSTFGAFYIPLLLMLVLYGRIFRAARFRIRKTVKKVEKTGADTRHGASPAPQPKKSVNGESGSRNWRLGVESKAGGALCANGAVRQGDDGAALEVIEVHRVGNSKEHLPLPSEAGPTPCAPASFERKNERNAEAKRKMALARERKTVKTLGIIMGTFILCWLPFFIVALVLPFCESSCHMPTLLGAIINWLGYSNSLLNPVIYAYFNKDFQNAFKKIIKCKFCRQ
# B1: Gpa1p: endogenous yeast Gα subunit, product of the GPA1 gene (protein, UniProt P08539 2-472, looked up)
# Guanine nucleotide-binding …: GCTVSTQTIGDESDPFLQNKRANDVIEQSLQLEKQRDKNEIKLLLLGAGESGKSTVLKQLKLLHQGGFSHQERLQYAQVIWADAIQSMKILIIQARKLGIQLDCDDPINNKDLFACKRILLKAKALDYINASVAGGSDFLNDYVLKYSERYETRRRVQSTGRAKAAFDEDGNISNVKSDTDRDAETVTQNEDADRNNSSRINLQDICKDLNQEGDDQMFVRKTSREIQGQNRRNLIHEDIAKAIKQLWNNDKGIKQCFARSNEFQLEGSAAYYFDNIEKFASPNYVCTDEDILKGRIKTTGITETEFNIGSSKFKVLDAGGQRSERKKWIHCFEGITAVLFVLAMSEYDQMLFEDERVNRMHESIMLFDTLLNSKWFKDTPFILFLNKIDLFEEKVKSMPIRKYFPDYQGRVGDAEAGLKYFEKIFLSLNKTNKPIYVKRTCATDTQTMKFVLSAVTDLIIQQNLKKIGII
# Experiments:
# Format in all cases: cell-based
# melatonin ML1B receptor = target: T1, melatonin ML1B receptor; assay: Reverse halo assay for FUS1-HIS3 expression, MMY9 cells, ML1B; conditions: MMY9 cells with pRS314-GPA1 and ML1B receptor, 40 nmol melatonin
# Experimental: (§1) Assay for FUS1-HIS3 Expression. Reverse halo assays were carried out by growing MMY9 cells to early stationary phase (OD600≈4) in liquid SC-glucose (2%) medium lacking tryptophan and uracil. A uniform layer of cells (5×10^7) was plated to 22.5 cm by 22.5 cm bioassay dishes (Nunc) in 100 ml SC-glucose agar (1%) equilibrated to 50° C. This medium lacked tryptophan, uracil and histidine, and was supplemented with 10 mM 3-aminotriazole, and buffered to pH 7.0 with 0.1M sodium phosphate. Antibiotic discs were placed on the solidified agar, and a volume of agonist solution (1-5 μl) was applied to each disc. Plates were incubated at 30° C. for 3 days.
# (§2) The four receptors were: the melatonin ML1B receptor, the serotonin 5HT1A receptor, the somatostatin SST2 receptor and the purinergic nucleotide receptor, P2Y2. […] Activation of the pheromone response pathway was monitored with two integrated reporter genes: […] allowing a growth readout in medium lacking histidine, and FUS1-lacZ allowing a β-galactosidase readout. […] Agonist-dependent activation of FUS1-HIS3 was determined by reverse halo assay in which agonists were applied to the filter discs in the arrangement shown in panel A, in quantities as follows: 3 nmol of somatostatin-14 (S-14); 40 nmol of melatonin (Mel); 3 nmol of α-factor; 100 nmol of UTP; 40 nmol of serotonin (5-HT). […]
# serotonin 5HT1A receptor [1] = target: T2, serotonin 5HT1A receptor; assay: Reverse halo assay for FUS1-HIS3 expression, MMY9 cells, 5-HT1A; conditions: MMY9 cells with pRS314-GPA1 and 5-HT1A receptor, 40 nmol serotonin
# Experimental: as §1, §2
# serotonin 5HT1A receptor [2] = target: T2, serotonin 5HT1A receptor; assay: CPRG assay, MMY11 cells expressing 5-HT1A receptor plus Gα subunit; parameters: key: weak activation insufficient to carry out curve-fitting was detected; NC: no coupling was detected
# Experimental: Assay for combined FUS1-lacZ and FUS1-HIS3 Expression. In vivo assays of reporter gene induction (CPRG assays) were carried out by suspending cells to 0.02 OD600 in 200 μl SC-glucose (2%) lacking tryptophan, uracil and histidine. This medium was supplemented with agonists, and additionally 10 mM 3-aminotriazole and the β-galactosidase (lacZ) substrate chlorophenolred-β-D-galactopyranoside (CPRG; Boehringer) to a concentration of 0.1 mg/ml. To visualise the colour change reaction, the medium was buffered to pH 7 with 0.1 M sodium phosphate. The assay was conducted in a 96-well microtitre plate format. Plates were incubated for 24 hours without agitation, and absorbance at 570 nm was determined using a Victor microtitre plate reader (Wallac). EC50 values (+/−standard error) were estimated by curve-fitting, using the Robosage software package.
# MMY11 was used in an experiment in which cells were transformed with pairs of plasmids as before, one to express a Gα subunit and the other a receptor expression construct. […] Where pheromone response pathway activation was detected, the agonist concentration required to yield a half-maximal response (EC50+/−standard error; all values in nM except where otherwise indicated) was determined by curve-fitting, and is shown in Table 4A. Where no coupling was detected, this is also indicated (NC).
molecule,measurement,setting,value
B1,agonist-dependent activation of FUS1-HIS3 (halo of cell growth),melatonin ML1B receptor,activated FUS1-HIS3 in response to melatonin
same,agonist-dependent activation of FUS1-HIS3 (halo of cell growth),serotonin 5HT1A receptor [1],did not activate FUS1-HIS3 in response to the agonist serotonin
same,coupling class where no EC50 could be fitted,serotonin 5HT1A receptor [2],weak
